Measurements reported in the supplement of paper PMC9112550, “Optimization of the antimicrobial peptide Bac7 by deep mutational scanning” (BMC Biology, 2022).
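Note: peptides expressed intracellularly from a pBAD plasmid library in pooled LB shake-flask culture, induced with 0.3% L-arabinose, DNA abundance read by NGS, three biological replicates, DESeq2 with apeglm shrinkage.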

These sequences were tested on Escherichia coli TOP10 (assay: shrunken log2 fold change of peptide-encoding DNA abundance (4.5 h post-induction vs induction); higher = less antimicrobial activity (less host growth inhibition)). Details: time post-induction: 4.5 h; library: site-saturation at positions 5, 18, 19, 20.
With RRIRSRPPRLPRPRPRPASQPRP the “shrunken log2 fold change” value was 0.0365. For RRIRSRPPRLPRPRPRPATLPRP, the “shrunken log2 fold change” value was -0.0555. For RRIRSRPPRLPRPRPRPATNPRP, the “shrunken log2 fold change” value was 0.0897. In the case of RRIRSRPPRLPRPRPRPAVIPRP, the “shrunken log2 fold change” value is reported as -0.593. RRIRSRPPRLPRPRPRPAVPPRP was tested, and the “shrunken log2 fold change” value was 0.168. With RRIRSRPPRLPRPRPRPAWSPRP the “shrunken log2 fold change” value was 0.58. In the case of RRIRSRPPRLPRPRPRPAYSPRP, the “shrunken log2 fold change” value is reported as -0.0975. With RRIRSRPPRLPRPRPRPAYVPRP the “shrunken log2 fold change” value was -0.137. In the case of RRIRSRPPRLPRPRPRPAYYPRP, the “shrunken log2 fold change” value is reported as -0.495. RRIRSRPPRLPRPRPRPCAYPRP was tested, and the “shrunken log2 fold change” value was -0.431. In the case of RRIRSRPPRLPRPRPRPCDFPRP, the “shrunken log2 fold change” value is reported as -0.108. In the case of RRIRSRPPRLPRPRPRPCDIPRP, the “shrunken log2 fold change” value is reported as -0.0321. In the case of RRIRSRPPRLPRPRPRPCDNPRP, the “shrunken log2 fold change” value is reported as -0.165. In the case of RRIRSRPPRLPRPRPRPCDPPRP, the “shrunken log2 fold change” value is reported as 0.0442. With RRIRSRPPRLPRPRPRPCDYPRP the “shrunken log2 fold change” value was -0.238. In the case of RRIRSRPPRLPRPRPRPCEEPRP, the “shrunken log2 fold change” value is reported as 0.00181. In the case of RRIRSRPPRLPRPRPRPCEPPRP, the “shrunken log2 fold change” value is reported as -1.02. With RRIRSRPPRLPRPRPRPCERPRP the “shrunken log2 fold change” value was -0.0685. For RRIRSRPPRLPRPRPRPCGGPRP, the “shrunken log2 fold change” value was 0.012. In the case of RRIRSRPPRLPRPRPRPCHWPRP, the “shrunken log2 fold change” value is reported as -0.0782. With RRIRSRPPRLPRPRPRPCLEPRP the “shrunken log2 fold change” value was -0.0107. RRIRSRPPRLPRPRPRPCLGPRP was tested, and the “shrunken log2 fold change” value was -0.127. In the case of RRIRSRPPRLPRPRPRPCMLPRP, the “shrunken log2 fold change” value is reported as -0.472. RRIRSRPPRLPRPRPRPCNIPRP was tested, and the “shrunken log2 fold change” value was -0.178. For RRIRSRPPRLPRPRPRPCQAPRP, the “shrunken log2 fold change” value was 0.116. In the case of RRIRSRPPRLPRPRPRPCQPPRP, the “shrunken log2 fold change” value is reported as 0.0956. With RRIRSRPPRLPRPRPRPCRKPRP the “shrunken log2 fold change” value was -0.012. RRIRSRPPRLPRPRPRPCRMPRP was tested, and the “shrunken log2 fold change” value was -0.102. For RRIRSRPPRLPRPRPRPCRYPRP, the “shrunken log2 fold change” value was -0.424. With RRIRSRPPRLPRPRPRPCSAPRP the “shrunken log2 fold change” value was -0.0813. In the case of RRIRSRPPRLPRPRPRPCSEPRP, the “shrunken log2 fold change” value is reported as -0.228. For RRIRSRPPRLPRPRPRPCYQPRP, the “shrunken log2 fold change” value was 0.0321. In the case of RRIRSRPPRLPRPRPRPDATPRP, the “shrunken log2 fold change” value is reported as 0.816. With RRIRSRPPRLPRPRPRPDCSPRP the “shrunken log2 fold change” value was 0.0664. RRIRSRPPRLPRPRPRPDDCPRP was tested, and the “shrunken log2 fold change” value was -0.0201. In the case of RRIRSRPPRLPRPRPRPDFMPRP, the “shrunken log2 fold change” value is reported as -0.159. With RRIRSRPPRLPRPRPRPDGHPRP the “shrunken log2 fold change” value was -0.0734. With RRIRSRPPRLPRPRPRPDGKPRP the “shrunken log2 fold change” value was 0.00369. In the case of RRIRSRPPRLPRPRPRPDMDPRP, the “shrunken log2 fold change” value is reported as -0.201. RRIRSRPPRLPRPRPRPDMYPRP was tested, and the “shrunken log2 fold change” value was 0.00612. For RRIRSRPPRLPRPRPRPDNDPRP, the “shrunken log2 fold change” value was -0.0528. RRIRSRPPRLPRPRPRPDNLPRP was tested, and the “shrunken log2 fold change” value was -0.0926. RRIRSRPPRLPRPRPRPDQRPRP was tested, and the “shrunken log2 fold change” value was 0.0901. With RRIRSRPPRLPRPRPRPDRPPRP the “shrunken log2 fold change” value was -0.0605. RRIRSRPPRLPRPRPRPDSKPRP was tested, and the “shrunken log2 fold change” value was 1.02. RRIRSRPPRLPRPRPRPDSTPRP was tested, and the “shrunken log2 fold change” value was -0.481. With RRIRSRPPRLPRPRPRPDTNPRP the “shrunken log2 fold change” value was -0.111. In the case of RRIRSRPPRLPRPRPRPECEPRP, the “shrunken log2 fold change” value is reported as -0.0828. RRIRSRPPRLPRPRPRPECNPRP was tested, and the “shrunken log2 fold change” value was 0.218. With RRIRSRPPRLPRPRPRPEDLPRP the “shrunken log2 fold change” value was -0.0115. RRIRSRPPRLPRPRPRPEDQPRP was tested, and the “shrunken log2 fold change” value was 0.106. For RRIRSRPPRLPRPRPRPEEHPRP, the “shrunken log2 fold change” value was -0.0107. In the case of RRIRSRPPRLPRPRPRPEESPRP, the “shrunken log2 fold change” value is reported as -0.048. For RRIRSRPPRLPRPRPRPEFPPRP, the “shrunken log2 fold change” value was 0.123. RRIRSRPPRLPRPRPRPEGNPRP was tested, and the “shrunken log2 fold change” value was -0.0126. With RRIRSRPPRLPRPRPRPEHDPRP the “shrunken log2 fold change” value was -0.128. In the case of RRIRSRPPRLPRPRPRPEHNPRP, the “shrunken log2 fold change” value is reported as -0.0911. With RRIRSRPPRLPRPRPRPEKFPRP the “shrunken log2 fold change” value was -0.146. RRIRSRPPRLPRPRPRPEKNPRP was tested, and the “shrunken log2 fold change” value was 0.312. For RRIRSRPPRLPRPRPRPELRPRP, the “shrunken log2 fold change” value was 0.382. In the case of RRIRSRPPRLPRPRPRPENNPRP, the “shrunken log2 fold change” value is reported as -0.449. RRIRSRPPRLPRPRPRPEQHPRP was tested, and the “shrunken log2 fold change” value was -0.101. RRIRSRPPRLPRPRPRPESMPRP was tested, and the “shrunken log2 fold change” value was 0.151. With RRIRSRPPRLPRPRPRPETCPRP the “shrunken log2 fold change” value was 0.152. In the case of RRIRSRPPRLPRPRPRPETNPRP, the “shrunken log2 fold change” value is reported as -0.0626. With RRIRSRPPRLPRPRPRPEVDPRP the “shrunken log2 fold change” value was 0.51. RRIRSRPPRLPRPRPRPEVHPRP was tested, and the “shrunken log2 fold change” value was 0.0346. RRIRSRPPRLPRPRPRPEWSPRP was tested, and the “shrunken log2 fold change” value was 0.233. With RRIRSRPPRLPRPRPRPEYVPRP the “shrunken log2 fold change” value was 0.0646. RRIRSRPPRLPRPRPRPFAKPRP was tested, and the “shrunken log2 fold change” value was -0.136. For RRIRSRPPRLPRPRPRPFAQPRP, the “shrunken log2 fold change” value was 0.185. For RRIRSRPPRLPRPRPRPFCFPRP, the “shrunken log2 fold change” value was -0.069. With RRIRSRPPRLPRPRPRPFCVPRP the “shrunken log2 fold change” value was -0.128. With RRIRSRPPRLPRPRPRPFCWPRP the “shrunken log2 fold change” value was 0.651. For RRIRSRPPRLPRPRPRPFDAPRP, the “shrunken log2 fold change” value was -0.279. With RRIRSRPPRLPRPRPRPFDNPRP the “shrunken log2 fold change” value was 0.0211. For RRIRSRPPRLPRPRPRPFFQPRP, the “shrunken log2 fold change” value was -0.105. With RRIRSRPPRLPRPRPRPFFSPRP the “shrunken log2 fold change” value was -0.13. With RRIRSRPPRLPRPRPRPFGSPRP the “shrunken log2 fold change” value was -0.178. For RRIRSRPPRLPRPRPRPFHMPRP, the “shrunken log2 fold change” value was -0.365. RRIRSRPPRLPRPRPRPFICPRP was tested, and the “shrunken log2 fold change” value was -0.163. RRIRSRPPRLPRPRPRPFKTPRP was tested, and the “shrunken log2 fold change” value was -0.0323. With RRIRSRPPRLPRPRPRPFLMPRP the “shrunken log2 fold change” value was 3.07. With RRIRSRPPRLPRPRPRPFMQPRP the “shrunken log2 fold change” value was -0.638. RRIRSRPPRLPRPRPRPFNAPRP was tested, and the “shrunken log2 fold change” value was -0.459. With RRIRSRPPRLPRPRPRPFNPPRP the “shrunken log2 fold change” value was -0.28. With RRIRSRPPRLPRPRPRPFPLPRP the “shrunken log2 fold change” value was -0.886. For RRIRSRPPRLPRPRPRPFQMPRP, the “shrunken log2 fold change” value was 0.00561. In the case of RRIRSRPPRLPRPRPRPFQVPRP, the “shrunken log2 fold change” value is reported as -0.0848. In the case of RRIRSRPPRLPRPRPRPFTPPRP, the “shrunken log2 fold change” value is reported as -0.0114. For RRIRSRPPRLPRPRPRPFVWPRP, the “shrunken log2 fold change” value was -0.0361. In the case of RRIRSRPPRLPRPRPRPGAAPRP, the “shrunken log2 fold change” value is reported as 0.603. RRIRSRPPRLPRPRPRPGCNPRP was tested, and the “shrunken log2 fold change” value was 0.0419. In the case of RRIRSRPPRLPRPRPRPGCTPRP, the “shrunken log2 fold change” value is reported as 0.22. With RRIRSRPPRLPRPRPRPGDCPRP the “shrunken log2 fold change” value was 0.0299. RRIRSRPPRLPRPRPRPGEIPRP was tested, and the “shrunken log2 fold change” value was 0.223. For RRIRSRPPRLPRPRPRPGEYPRP, the “shrunken log2 fold change” value was -0.275. RRIRSRPPRLPRPRPRPGGYPRP was tested, and the “shrunken log2 fold change” value was 2.83. RRIRSRPPRLPRPRPRPGITPRP was tested, and the “shrunken log2 fold change” value was -0.151. RRIRSRPPRLPRPRPRPGKEPRP was tested, and the “shrunken log2 fold change” value was -0.0291. With RRIRSRPPRLPRPRPRPGLKPRP the “shrunken log2 fold change” value was 0.14. For RRIRSRPPRLPRPRPRPGNGPRP, the “shrunken log2 fold change” value was -0.0508. In the case of RRIRSRPPRLPRPRPRPGNVPRP, the “shrunken log2 fold change” value is reported as -0.0126. With RRIRSRPPRLPRPRPRPGPEPRP the “shrunken log2 fold change” value was 0.221. With RRIRSRPPRLPRPRPRPGQKPRP the “shrunken log2 fold change” value was 0.0237. For RRIRSRPPRLPRPRPRPGRAPRP, the “shrunken log2 fold change” value was 1.02. RRIRSRPPRLPRPRPRPGRIPRP was tested, and the “shrunken log2 fold change” value was -0.0494. In the case of RRIRSRPPRLPRPRPRPGSKPRP, the “shrunken log2 fold change” value is reported as -0.0053. In the case of RRIRSRPPRLPRPRPRPGSTPRP, the “shrunken log2 fold change” value is reported as 0.0972.
